Source: publication PMC4245977 (Biochemistry, 2014)

Molecular target: the molecule itself
Assay: crystal structure

B1: AACC (C136A/C141A) double mutant of the Tn501 MerA (mercuric reductase) catalytic core (domain or fragment, Pseudomonas aeruginosa (Tn501))
chain: EPPVQVAVIGSGGAAMAAALKAVEQGAQVTLIERGTIGGTAVNVGAVPSKIMIRAAHIAHLRRESPFDGGIAATVPTIDRSKLLAQQQARVDELRHAKYEGILGGNPAITVVHGEARFKDDQSLTVRLNEGGERVVMFDRCLVATGASPAVPPIPGLKESPYWTSTEALASDTIPERLAVIGSSVVALELAQAFARLGSKVTVLARNTLFFREDPAIGEAVTAAFRAEGIEVLEHTQASQVAHMDGEFVLTTTHGELRADKLLVATGRTPNTRSLALDAAGVTVNAQGAIVIDQGMRTSNPNIYAAGDCTDQPQFVYVAAAAGTRAAINMTGGDAALDLTAMPAVVFTDPQVATVGYSEAEAHHDGIETDSRTLTLDNVPRALANFDTRGFIKLVIEEGSHRLIGVQAVAPEAGELIQTAALAIRNRMTVQELADQLFPYLTMVEGLKLAAQTFNKDVKQLSCCAG
B1: binds.
